Data on three molecules can be found in article PMC4112721 (Plant Biotechnology Journal, 2013).

This assay concerns the target T1, HIV-1 envelope glycoprotein gp120 IIIB (HIV-1 group M subtype B, isolate IIIB …, UniProt P03375).
T1 construct: gp120 surface glycoprotein, cut product of the HIV-1 Env precursor, isolate IIIB; also called recombinant gp120 III; HIV gp120 IIIB; source: purified recombinant; NIH ARRRP
Put plainly: SPR; Protein A amine-coupled on a CM5 chip, VRC01 captured to about 100 RU, gp120 IIIB injected at 20 ug/mL; BIAcore X-100, 25 °C, HBS-EP+ (10 mM HEPES pH 7.4, 150 mM NaCl, 3 mM EDTA, 0.05% surfactant P-20); 1:1 Langmuir fit; triplicate. As to conditions: both partners purified. In general terms: SPR reads the build-up and loss of mass on a sensor chip optically.

B1: VRC01 from transiently transformed Nicotiana benthamiana plants (antibody, V domains shown)
VH: QVQLVQSGGQMKKPGESMRISCRASGYEFIDCTLNWIRLAPGKRPEWMGWLKPRGGAVNYARPLQGRVTMTRDVYSDTAFLELRSLTVDDTAVYFCTRGKNCDYNWDFEHWGRGTPVIVSS
VL: EIVLTQSPGTLSLSPGETAIISCRTSQYGSLAWYQQRPGQAPRLVIYSGSTRAAGIPDRFSGSRWGPDYNLTISNLESGDFGVYYCQQYEFFGQGTKVQVD
notes: IgG1 kappa; plant-codon-optimized genes, both chains on one pTRAk.2 vector; also called VRC01 transient; transient plant-derived VRC01
B1 registered a Kd of 1.68 nM.

B2: VRC01 from stably transformed (transgenic) Nicotiana tabacum plants (antibody, V domains shown)
VH: B1 VH
VL: B1 VL
notes: as the heavy chain of m1; as the light chain of m1; IgG1 kappa; source: N. tabacum cv
Molecule B2 showed an equilibrium dissociation constant (Kd) of 1.39 nM.

B3: VRC01 from HEK cells (antibody, V domains shown)
VH: B1 VH
VL: B1 VL
notes: as the heavy chain of m1; as the light chain of m1; IgG1 kappa; also called VRC01 HEK; HEK-cells-derived VRC01; source: HEK cells, purified
The molecule B3 returned a Kd of 0.66 nM.

Broadly, the Kd is the constant that tells how readily two partners part at equilibrium.
